Measurements published in article PMC5428420, “The trimer interface in the quaternary structure of the bifunctional prokaryotic FAD synthetase from Corynebacterium ammoniagenes” (Scientific Reports, 2017).

Target: the molecule itself
Experiment: SEC; oligomeric fractions, 15-20 µM protein, incubated 10 min at room temperature in buffer only (20 mM PIPES, 0.8 mM MgCl2, pH 7.0), then passed again through Superdex 200 10/300 GL

B1: FAD synthetase from Corynebacterium ammoniagenes, wild type (enzyme)
chain: MDIWYGTAAVPKDLDNSAVTIGVFDGVHRGHQKLINATVEKAREVGAKAIMVTFDPHPVSVFLPRRAPLGITTLAERFALAESFGIDGVLVIDFTRELSGTSPEKYVEFLLEDTLHASHVVVGANFTFGENAAGTADSLRQICQSRLTVDVIDLLDDEGVRISSTTVREFLSEGDVARANWALGRHFYVTGPVVRGAGRGGKELGFPTANQYFHDTVALPADGVYAGWLTILPTEAPVSGNMEPEVAYAAAISVGTNPTFGDEQRSVESFVLDRDADLYGHDVKVEFVDHVRAMEKFDSVEQLLEVMAKDVQKTRTLLAQDVQAHKMAPETYFLQAES
notes: Bifunctional FAD synthetase (N-terminal FMNAT module, C-terminal RFK module) from Corynebacterium ammoniagenes, CaFADS; Plasmid pET28a-CaFADS; The size of the oligomers was not resolved by gel filtration; also called CaFADS; WT CaFADS; source: E. coli BL21(DE3), purified (20% ammonium sulfate fractionation, phenyl-sepharose, DEAE-cellulose)
monomer/oligomer ratio: ~0.8
